The record followed here is patent USRE47150 (Bayer, dated 2018).

The target of test [1] is T1, human tissue factor pathway inhibitor (TFPI) (human, UniProt P10646 29-304, limits assumed).
T1 construct: bought; also called hTFPI; human TFPI
T1 sequence (looked up): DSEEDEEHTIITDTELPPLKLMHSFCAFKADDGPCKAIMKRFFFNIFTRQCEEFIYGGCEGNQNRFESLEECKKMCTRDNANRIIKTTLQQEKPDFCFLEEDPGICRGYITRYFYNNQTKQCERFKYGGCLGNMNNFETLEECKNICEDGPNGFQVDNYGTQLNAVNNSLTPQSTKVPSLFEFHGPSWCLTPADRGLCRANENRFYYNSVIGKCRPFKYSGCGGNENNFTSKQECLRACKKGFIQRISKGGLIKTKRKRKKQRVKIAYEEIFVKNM
The test can be described thus: competitive ELISA. (In an ELISA, binding on a coated surface is turned into a signal by an enzyme label.)

Test [2] addresses T2, mouse tissue factor pathway inhibitor (TFPI) (mouse, UniProt O54819 29-289, limits assumed).
T2 construct: bought; also called mTFPI; murine TFPI
T2 sequence (looked up): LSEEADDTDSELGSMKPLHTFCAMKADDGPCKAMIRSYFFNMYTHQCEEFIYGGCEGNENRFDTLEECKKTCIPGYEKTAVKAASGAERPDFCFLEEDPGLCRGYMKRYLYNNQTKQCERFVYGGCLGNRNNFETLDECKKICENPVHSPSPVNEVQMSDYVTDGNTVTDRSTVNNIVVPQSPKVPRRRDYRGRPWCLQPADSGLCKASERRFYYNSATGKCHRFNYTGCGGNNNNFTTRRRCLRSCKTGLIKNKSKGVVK
The test can be described thus: competitive ELISA.

B1: 4B7 HC N32D+D62Q+H107M+Y112D/LC S32R+D33F (Fab, V domains shown)
VH: QVQLQQSGPGLVKPSQTLSLTCAISGDSVSSDSAAWSWIRQSPGRGLEWLGIIYKRSKWYNQYAVSVKSRITINPDTSKNQFSLQLNSVTPEDTAVYYCARWHSDKMWGFDDWGQGTLVTVSS
VL: DIVMTQSPLSLPVTPGEPASISCRSSQSLVFRFGNTYLNWYLQKPGQSPQLLIYKGSNRASGVPDRFSGSGSGTDFTLKISRVEAEDVGVYYCQQYDSYPLTFGQGTKVEIKR
Regarding B1, the values for the variant/HC_D62R in test [1] and in test [2] were 23.2 ratio and 16.9 ratio, respectively.

B2: 4B7 HC N32D+D62Q+Y112D/LC F31I+D33F+N35I+D97T (Fab, V domains shown)
VH: QVQLQQSGPGLVKPSQTLSLTCAISGDSVSSDSAAWSWIRQSPGRGLEWLGIIYKRSKWYNQYAVSVKSRITINPDTSKNQFSLQLNSVTPEDTAVYYCARWHSDKHWGFDDWGQGTLVTVSS
VL: DIVMTQSPLSLPVTPGEPASISCRSSQSLVISFGITYLNWYLQKPGQSPQLLIYKGSNRASGVPDRFSGSGSGTDFTLKISRVEAEDVGVYYCQQYTSYPLTFGQGTKVEIKR
Turning to B2, the variant/HC_D62R in test [1] stood at 14.4 ratio; in test [2] it was 4.6 ratio.

B3: 4B7 HC N32D+D62Q+Y112D/LC S32R+D33R+N35I (Fab, V domains shown)
VH: QVQLQQSGPGLVKPSQTLSLTCAISGDSVSSDSAAWSWIRQSPGRGLEWLGIIYKRSKWYNQYAVSVKSRITINPDTSKNQFSLQLNSVTPEDTAVYYCARWHSDKHWGFDDWGQGTLVTVSS
VL: DIVMTQSPLSLPVTPGEPASISCRSSQSLVFRRGITYLNWYLQKPGQSPQLLIYKGSNRASGVPDRFSGSGSGTDFTLKISRVEAEDVGVYYCQQYDSYPLTFGQGTKVEIKR
In the case of B3, the variant/HC_D62R in test [1] came to 21.4 ratio; in test [2] it was 23.5 ratio.

B4: 4B7 HC N32D+D62Q+Y112D/LC F31I+D33F+N35I+K44R (Fab, V domains shown)
VH: QVQLQQSGPGLVKPSQTLSLTCAISGDSVSSDSAAWSWIRQSPGRGLEWLGIIYKRSKWYNQYAVSVKSRITINPDTSKNQFSLQLNSVTPEDTAVYYCARWHSDKHWGFDDWGQGTLVTVSS
VL: DIVMTQSPLSLPVTPGEPASISCRSSQSLVISFGITYLNWYLQRPGQSPQLLIYKGSNRASGVPDRFSGSGSGTDFTLKISRVEAEDVGVYYCQQYDSYPLTFGQGTKVEIKR
B4: the variant/HC_D62R came to 22.8 ratio in test [1] and 18.5 ratio in test [2].

B5: 4B7 HC N32D+D62Q+Y112D/LC S32R+D33R+N35I+D97T (Fab, V domains shown)
VH: QVQLQQSGPGLVKPSQTLSLTCAISGDSVSSDSAAWSWIRQSPGRGLEWLGIIYKRSKWYNQYAVSVKSRITINPDTSKNQFSLQLNSVTPEDTAVYYCARWHSDKHWGFDDWGQGTLVTVSS
VL: DIVMTQSPLSLPVTPGEPASISCRSSQSLVFRRGITYLNWYLQKPGQSPQLLIYKGSNRASGVPDRFSGSGSGTDFTLKISRVEAEDVGVYYCQQYTSYPLTFGQGTKVEIKR
Turning to B5, the variant/HC_D62R in test [1] is 17.2 ratio; in test [2], 13.4 ratio.

B6: 4B7 HC N32D+D62Q+H107M+Y112D/LC S32R+D33R (Fab, V domains shown)
VH: QVQLQQSGPGLVKPSQTLSLTCAISGDSVSSDSAAWSWIRQSPGRGLEWLGIIYKRSKWYNQYAVSVKSRITINPDTSKNQFSLQLNSVTPEDTAVYYCARWHSDKMWGFDDWGQGTLVTVSS
VL: DIVMTQSPLSLPVTPGEPASISCRSSQSLVFRRGNTYLNWYLQKPGQSPQLLIYKGSNRASGVPDRFSGSGSGTDFTLKISRVEAEDVGVYYCQQYDSYPLTFGQGTKVEIKR
Turning to B6, the variant/HC_D62R in test [1] was 24.9 ratio; in test [2], 24.7 ratio.

B7: 4B7 HC N32D+D62Q+Y112D/LC V30L+F31I+D33F+N35I (Fab, V domains shown)
VH: QVQLQQSGPGLVKPSQTLSLTCAISGDSVSSDSAAWSWIRQSPGRGLEWLGIIYKRSKWYNQYAVSVKSRITINPDTSKNQFSLQLNSVTPEDTAVYYCARWHSDKHWGFDDWGQGTLVTVSS
VL: DIVMTQSPLSLPVTPGEPASISCRSSQSLLISFGITYLNWYLQKPGQSPQLLIYKGSNRASGVPDRFSGSGSGTDFTLKISRVEAEDVGVYYCQQYDSYPLTFGQGTKVEIKR
Regarding B7, the variant/HC_D62R in test [1] amounted to 22.9 ratio; in test [2], 24.6 ratio.

B8: 4B7 HC N32D+D62Q+Y112D/LC F31I+D33F+N35I+T36N (Fab, V domains shown)
VH: QVQLQQSGPGLVKPSQTLSLTCAISGDSVSSDSAAWSWIRQSPGRGLEWLGIIYKRSKWYNQYAVSVKSRITINPDTSKNQFSLQLNSVTPEDTAVYYCARWHSDKHWGFDDWGQGTLVTVSS
VL: DIVMTQSPLSLPVTPGEPASISCRSSQSLVISFGINYLNWYLQKPGQSPQLLIYKGSNRASGVPDRFSGSGSGTDFTLKISRVEAEDVGVYYCQQYDSYPLTFGQGTKVEIKR
As for B8, the variant/HC_D62R in test [1] was 27.3 ratio; in test [2] it was 46.3 ratio.

B9: 4B7 HC N32D+D62Q+Y112D/LC F31M+S32R+D33F+N35I (Fab, V domains shown)
VH: QVQLQQSGPGLVKPSQTLSLTCAISGDSVSSDSAAWSWIRQSPGRGLEWLGIIYKRSKWYNQYAVSVKSRITINPDTSKNQFSLQLNSVTPEDTAVYYCARWHSDKHWGFDDWGQGTLVTVSS
VL: DIVMTQSPLSLPVTPGEPASISCRSSQSLVMRFGITYLNWYLQKPGQSPQLLIYKGSNRASGVPDRFSGSGSGTDFTLKISRVEAEDVGVYYCQQYDSYPLTFGQGTKVEIKR
For the molecule B9, the variant/HC_D62R stood at 20.8 ratio in test [1] and 15.8 ratio in test [2].

B10: 4B7 HC N32D+D62Q+H107M+Y112D/LC S32R+D33F+N35I (Fab, V domains shown)
VH: QVQLQQSGPGLVKPSQTLSLTCAISGDSVSSDSAAWSWIRQSPGRGLEWLGIIYKRSKWYNQYAVSVKSRITINPDTSKNQFSLQLNSVTPEDTAVYYCARWHSDKMWGFDDWGQGTLVTVSS
VL: DIVMTQSPLSLPVTPGEPASISCRSSQSLVFRFGITYLNWYLQKPGQSPQLLIYKGSNRASGVPDRFSGSGSGTDFTLKISRVEAEDVGVYYCQQYDSYPLTFGQGTKVEIKR
For the molecule B10, the variant/HC_D62R in test [1] is 24.7 ratio; in test [2], 46.6 ratio.

B11: 4B7 HC N32D+D62Q+Y112D/LC S32R+D33F+N35I+D97T (Fab, V domains shown)
VH: QVQLQQSGPGLVKPSQTLSLTCAISGDSVSSDSAAWSWIRQSPGRGLEWLGIIYKRSKWYNQYAVSVKSRITINPDTSKNQFSLQLNSVTPEDTAVYYCARWHSDKHWGFDDWGQGTLVTVSS
VL: DIVMTQSPLSLPVTPGEPASISCRSSQSLVFRFGITYLNWYLQKPGQSPQLLIYKGSNRASGVPDRFSGSGSGTDFTLKISRVEAEDVGVYYCQQYTSYPLTFGQGTKVEIKR
Take B11: the variant/HC_D62R stood at 23.2 ratio in test [1] and 40 ratio in test [2].

B12: 4B7 HC N32D+D62Q+Y112D/LC F31I+D33F+N35I+L42Q (Fab, V domains shown)
VH: QVQLQQSGPGLVKPSQTLSLTCAISGDSVSSDSAAWSWIRQSPGRGLEWLGIIYKRSKWYNQYAVSVKSRITINPDTSKNQFSLQLNSVTPEDTAVYYCARWHSDKHWGFDDWGQGTLVTVSS
VL: DIVMTQSPLSLPVTPGEPASISCRSSQSLVISFGITYLNWYQQKPGQSPQLLIYKGSNRASGVPDRFSGSGSGTDFTLKISRVEAEDVGVYYCQQYDSYPLTFGQGTKVEIKR
Consider B12, for which the results for the variant/HC_D62R in test [1] and in test [2] were 21.4 ratio and 16.7 ratio, respectively.

B13: 4B7 HC N32D+D62Q+Y112D/LC F31I+D33F+N35I+S98H (Fab, V domains shown)
VH: QVQLQQSGPGLVKPSQTLSLTCAISGDSVSSDSAAWSWIRQSPGRGLEWLGIIYKRSKWYNQYAVSVKSRITINPDTSKNQFSLQLNSVTPEDTAVYYCARWHSDKHWGFDDWGQGTLVTVSS
VL: DIVMTQSPLSLPVTPGEPASISCRSSQSLVISFGITYLNWYLQKPGQSPQLLIYKGSNRASGVPDRFSGSGSGTDFTLKISRVEAEDVGVYYCQQYDHYPLTFGQGTKVEIKR
As for B13, in test [1], the variant/HC_D62R was 13.5 ratio. For the same molecule, the binding result in test [2] is on record as “no binding”.

B14: 4B7 HC N32D+D62Q+H107M+Y112D/LC S32R+N35T (Fab, V domains shown)
VH: QVQLQQSGPGLVKPSQTLSLTCAISGDSVSSDSAAWSWIRQSPGRGLEWLGIIYKRSKWYNQYAVSVKSRITINPDTSKNQFSLQLNSVTPEDTAVYYCARWHSDKMWGFDDWGQGTLVTVSS
VL: DIVMTQSPLSLPVTPGEPASISCRSSQSLVFRDGTTYLNWYLQKPGQSPQLLIYKGSNRASGVPDRFSGSGSGTDFTLKISRVEAEDVGVYYCQQYDSYPLTFGQGTKVEIKR
For B14, the variant/HC_D62R amounted to 25 ratio in test [1] and 27.1 ratio in test [2].
